The values below come from patent US20200131496A1 (REGENTS OF THE UNIVERSITY OF MINNESOTA, published 2020).

Residue numbers refer to the chain shown, from its start. Numbers in names are those of the source.

Data set [1] concerns the molecule itself. The experiment in a line: ion exchange and size-exclusion chromatography; self-association, RNA-mediated.
Data set [2] deals with the molecule itself. Description: size-exclusion chromatography (self-association). (Size exclusion chromatography separates by hydrodynamic size, large species first.)
Data set [3] deals with the molecule itself. Description: size-exclusion chromatography; self-association, RNA-mediated.

B1: His-tagged mCherry(1-232)-3×Ala linker-A3H-HapII(1-183), wild-type (enzyme)
chain: AAAMALLTAETFRLQFNNKRRLRRPYYPRKALLCYQLTPQNGSTPTRGYFENKKKCHAEICFINEIKSMGLDETQCYQVTCYLTWSPCSSCAWELVDFIKAHDHLNLRIFASRLYYHWCKPQQDGLRLLCGSQVPVEVMGFPEFADCWENFVDHEKPLSFNPYKMLEELDKNSRAIKRRLDRIKQS
notes: range 1-232; Purified from E. coli with RNase A treatment; also called wild-type mCherry-A3H; mCherry-A3Hwt; not shown: N-terminal His tag from the pRSFDuet-1 vector and engineered HRV 3C protease site upstream of mCherry; mCherry residues 1-232, amplified from pRSETB-mCherry (Shaner et al. 2004)
As for B1, the binding result in data set [1] is recorded as “binds”.

B2: mCherry-A3H-E56A-W115A-R175/6E (enzyme)
chain: B1 chain with E59A, W118A, R178E, R179E
notes: range 1-232; E56A added to prevent E. coli toxicity; preparation lacks RNA; also called W115A/R175/6E with E56A; not shown: N-terminal His tag from the pRSFDuet-1 vector and HRV 3C protease site; mCherry residues 1-232, amplified from pRSETB-mCherry
For B2, the binding result in data set [2] is reported as “no binding”.

B3: mCherry-A3H-K52E (enzyme)
chain: B1 chain with K55E
notes: range 1-232; His tag present in size-exclusion chromatography; Crystal holds two A3H monomers bridged by duplex RNA; also called mCherry-K52E; pdb 6BOB; not shown: N-terminal His tag from the pRSFDuet-1 vector and HRV 3C protease site; tag removed with 3C proteas; mCherry residues 1-232, amplified from pRSETB-mCherry
Take B3: the binding result in data set [3] was “binds”.

B4: mCherry-A3H-E56A (enzyme)
chain: B1 chain with E59A
notes: range 1-232; Catalytic mutant; also called E56A catalytic mutant; not shown: N-terminal His tag from the pRSFDuet-1 vector and HRV 3C protease site; mCherry residues 1-232, amplified from pRSETB-mCherry
B4: the binding result in data set [3] is on record as “binds”.

B5: mCherry-A3H-E56A-K52E (enzyme)
chain: B1 chain with K55E, E59A
notes: range 1-232; Used in size-exclusion chromatography and in the second crystal structure (6BBO); also called mCherry-A3H-K52E-E56A; A3H-K52E-E56A; not shown: N-terminal His tag from the pRSFDuet-1 vector and HRV 3C protease site; crystallized by similar met; mCherry residues 1-232, amplified from pRSETB-mCherry
Regarding B5, in data set [3], the binding result is recorded as “binds”.
